B1: His-tagged FHOD1-N3 (1–360) [human] / GST-fused FHOD1–DAD (1081–1145) [human] (parent complex)
chain 1: MAGGEDRGDGEPVSVVTVRVQYLEDTDPFACANFPEPRRAPTCSLDGALPLGAQIPAVHRLLGAPLKLEDCALQVSPSGYYLDTELSLEEQREMLEGFYEEISKGRKPTLILRTQLSVRVNAILEKLYSSSGPELRRSLFSLKQIFQEDKDLVPEFVHSEGLSCLIRVGAAADHNYQSYILRALGQLMLFVDGMLGVVAHSDTIQWLYTLCASLSRLVVKTALKLLLVFVEYSENNAPLFIRAVNSVASTTGAPPWANLVSILEEKNGADPELLVYTVTLINKTLAALPDQDSFYDVTDALEQQGMEALVQRHLGTAGTDVDLRTQLVLYENALKLEDGDIEEAPGAGGRRERRKPSSEE
chain 2: MPTVGPSTASPEEPPGSSLPSDTSDEIMDLLVQSVTKSSPRALAARERKRSRGNRKSLRRTLKSG

Variants of: B1
Assay: GST pull-down, SDS-PAGE, CBB staining, band quantification; parent: 100; read off a plot

| Variant | percent of parent |
| --- | --- |
| chain 1 MAGGEDRGDGEPVSVVTVRVQYLEDTDPFACANFPEPRRAPTCSLDGALPLGAQIPAVHRLLGAPLKLEDCALQVSPSGYYLDTELSLEEQREMLEGFYEEISKGRKPTLILRTQLSVRVNAILEKLYSSSGPELRRSLFSLKQIFQEDKDLVPEFVHSEGLSCLIRVGAAADHNYQSYILRALGQLMLFVDGMLGVVAHSDTIQWLYTLCASLSRLVVKTALKLLLVFVEYSENNAPLFIRAVNSVASTTGAPPWANLVSILEEKNGADPELLVYTVTLINKTLAALPDQRSFYDVTDALEQQGMEALVQRHLGTAGTDVDLRTQLVLYENALKLEDGDIEEAPGAGGRRERRKPSSEE [chain 1 D292R] | ~66% |
| chain 1 MAGGEDRGDGEPVSVVTVRVQYLEDTDPFACANFPEPRRAPTCSLDGALPLGAQIPAVHRLLGAPLKLEDCALQVSPSGYYLDTELSLEEQREMLEGFYEEISKGRKPTLILRTQLSVRVNAILEKLYSSSGPELRRSLFSLKQIFQEDKDLVPEFVHSEGLSCLIRVGAAADHNYQSYILRALGQLMLFVDGMLGVVAHSDTIQWLYTLCASLSRLVVKTALKLLLVFVEYSENNAPLFIRAVNSVASTTGAPPWANLVSILEEKNGADPELLVYTVTLINKTLAALPRQDSFYDVTDALEQQGMEALVQRHLGTAGTDVDLRTQLVLYENALKLEDGDIEEAPGAGGRRERRKPSSEE [chain 1 D290R] | ~52% |
| chain 1 MAGGEDRGDGEPVSVVTVRVQYLEDTDPFACANFPEPRRAPTCSLDGALPLGAQIPAVHRLLGAPLKLEDCALQVSPSGYYLDTELSLEEQREMLEGFYEEISKGRKPTLILRTQLSVRVNAILEKLYSSSGPELRRSLFSLKQIFQEDKDLVPEFVHSEGLSCLIRVGAAADHNYQSYILRALGQLMLFVDGMLGVVAHSDTIQWLYTLCASLSRLVVKTALKLLLVFVEYSENNAPLFIRAVNSVASTTGAPPWANLVSILEEKNGADPELLVYTVTLINKTLAALPDQDSFYDVTDALEQQGMEALVQRHLGTAGTDVDLRTQLVLYANALKLEDGDIEEAPGAGGRRERRKPSSEE [chain 1 E331A] | ~28% |
| chain 1 MAGGEDRGDGEPVSVVTVRVQYLEDTDPFACANFPEPRRAPTCSLDGALPLGAQIPAVHRLLGAPLKLEDCALQVSPSGYYLDTELSLEEQREMLEGFYEEISKGRKPTLILRTQLSVRVNAILEKLYSSSGPELRRSLFSLKQIFQEDKDLVPEFVHSEGLSCLIRVGAAADHNYQSYILRALGQLMLFVDGMLGVVAHSDTIQWLYTLCASLSRLVVKTALKLLLVFVEYSENNAPLFIRAVNSVASTTGAPPWANLVSILEEKNGADPELLVYTVTLINKTLAALPDQDSFYRVTDALEQQGMEALVQRHLGTAGTDVDLRTQLVLYENALKLEDGDIEEAPGAGGRRERRKPSSEE [chain 1 D296R] | ~66% |

Variants of: B1
Assay: as above
Remark: another data set of the same source

| Variant | percent of parent |
| --- | --- |
| chain 2 MPTVGPSTASPEEPPGSSLPSDTSDEIMDLAVQSVTKSSPRALAARERKRSRGNRKSLRRTLKSG [chain 2 L31A] | ~97% |
| chain 2 MPTVGPSTASPEEPPGSSLPSDTSDEIMDLLVQSATKSSPRALAARERKRSRGNRKSLRRTLKSG [chain 2 V35A] | ~96% |
| chain 2 MPTVGPSTASPEEPPGSSLPSDTSDEIADLLVQSVTKSSPRALAARERKRSRGNRKSLRRTLKSG [chain 2 M28A] | ~97% |
| chain 2 MPTVGPSTASPEEPPGSSLPSDTSDEIMDLLAQSVTKSSPRALAARERKRSRGNRKSLRRTLKSG [chain 2 V32A] | ~95% |

Variants of: B1
Assay: as above
Remark: another data set of the same source

| Variant | percent of parent |
| --- | --- |
| chain 2 MPTVGPSTASPEEPPGSSLPSDTSDEIMDLLVQSVTKSSPRALAAREDKRSRGNRKSLRRTLKSG [chain 2 R48D] | ~26% |
| chain 2 MPTVGPSTASPEEPPGSSLPSDTSDEIMDLLVQSVTKSSPRALAARERKRDRGNRKDLRRDLKSG [chain 2 S51D, chain 2 S57D, chain 2 T61D] | ~6% |
| chain 2 MPTVGPSTASPEEPPGSSLPSDTSDEIMDLLVQSVTKSSPRALAARERKRSRGNDKSLRRTLKSG [chain 2 R55D] | ~16% |
| chain 2 MPTVGPSTASPEEPPGSSLPSDTSDEIMDLLVQSVTKSSPRALAARERKRSRGNRKSLERTLKSG [chain 2 R59E] | ~18% |
